The target of this experiment is human IGF-1R (human) (UniProt P08069). The experiment in a line: cell-based or functional assay.
Sequence of human IGF-1R (human) (P08069 31-1367): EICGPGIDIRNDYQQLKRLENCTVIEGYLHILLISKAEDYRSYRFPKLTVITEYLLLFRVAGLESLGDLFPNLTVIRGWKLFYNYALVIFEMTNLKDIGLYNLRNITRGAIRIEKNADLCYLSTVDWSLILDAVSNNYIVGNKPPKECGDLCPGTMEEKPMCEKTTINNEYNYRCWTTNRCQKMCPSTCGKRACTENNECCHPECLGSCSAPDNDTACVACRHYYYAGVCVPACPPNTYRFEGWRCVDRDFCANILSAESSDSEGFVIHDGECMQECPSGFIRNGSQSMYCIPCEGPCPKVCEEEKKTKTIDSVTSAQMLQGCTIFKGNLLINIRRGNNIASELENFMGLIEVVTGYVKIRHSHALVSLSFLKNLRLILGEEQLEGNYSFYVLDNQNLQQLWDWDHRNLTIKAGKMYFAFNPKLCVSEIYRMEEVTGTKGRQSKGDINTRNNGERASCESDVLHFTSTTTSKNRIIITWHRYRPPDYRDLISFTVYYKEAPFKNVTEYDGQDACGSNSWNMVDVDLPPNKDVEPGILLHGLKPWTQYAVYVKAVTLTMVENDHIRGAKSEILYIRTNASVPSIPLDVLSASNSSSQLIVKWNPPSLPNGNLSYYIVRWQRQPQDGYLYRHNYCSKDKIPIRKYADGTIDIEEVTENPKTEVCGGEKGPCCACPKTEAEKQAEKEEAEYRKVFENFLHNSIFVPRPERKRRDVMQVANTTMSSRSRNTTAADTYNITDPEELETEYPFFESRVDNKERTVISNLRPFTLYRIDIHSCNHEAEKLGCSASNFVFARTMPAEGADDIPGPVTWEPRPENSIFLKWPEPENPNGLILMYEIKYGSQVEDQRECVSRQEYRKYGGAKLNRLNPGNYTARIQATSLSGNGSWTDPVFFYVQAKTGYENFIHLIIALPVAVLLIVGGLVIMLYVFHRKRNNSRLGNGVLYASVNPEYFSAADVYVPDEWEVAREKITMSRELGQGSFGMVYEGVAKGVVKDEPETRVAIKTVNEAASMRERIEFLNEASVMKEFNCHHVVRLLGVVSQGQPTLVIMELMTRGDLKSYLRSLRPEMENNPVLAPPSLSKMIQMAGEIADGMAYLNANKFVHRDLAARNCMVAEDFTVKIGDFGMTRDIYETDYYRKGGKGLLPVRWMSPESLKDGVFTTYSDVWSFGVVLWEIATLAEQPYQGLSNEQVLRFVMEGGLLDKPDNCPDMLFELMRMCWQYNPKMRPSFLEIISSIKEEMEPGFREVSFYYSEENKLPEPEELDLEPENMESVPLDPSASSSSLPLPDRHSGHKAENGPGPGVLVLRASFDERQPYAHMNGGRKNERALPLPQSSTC

Substance “IGF-1R antibody αIR3 (Calbiochem, No. GR11L)” returned a % Remaining Phosphorylation at 15 µg/mL (100 nM) Inhibitor, IGF-1 (20 ng/mL) induced IGF-1R phosphorylation of 35%; a % Remaining Phosphorylation at 15 µg/mL (100 nM) Inhibitor, IGF-2 (100 ng/mL) induced IGF-1R phosphorylation of 76%; a % Remaining Phosphorylation at 15 µg/mL (100 nM) Inhibitor, human serum (20%) induced IGF-1R phosphorylation of 120%; an IC50, IGF-1 (20 ng/mL) induced IGF-1R phosphorylation, cell-based ELISA of 1.16 µg/mL. This substance also displayed an IC50, IGF-2 (100 ng/mL) induced IGF-1R phosphorylation, cell-based ELISA of more than 15 µg/mL and an IC50, human serum (20%) induced IGF-1R phosphorylation, cell-based ELISA of more than 15 µg/mL.

The values are drawn from US20130122005A1, “ANTICANCER COMBINATION THERAPY” (priority 2011, published 2013).
